The nature of series [1]: Thermal stability (Protein Thermal Shift assay). It counts as physicochemical. To be noted: VHH domains, first derivative analysis. As for the experimental part:
Thermal stability assays used Applied Biosystems StepOne Real Time PCR system with the Protein Thermal Shift™ dye kit (Thermo Fisher). The assay mix was set up so that the protein was at a final concentration of 20 µM in 20 μL. 5 μL of Thermal Shift™ buffer was added alongside 2.5 μL 8× Thermal Shift™ Dye. Assays were run using the StepOne software and data analysed using Protein Thermal Shift™ software. All data are from first derivative analysis.

For series [2], the target named is T1, ALPL expressed on the surface of CHO cells (CHO-ALPL) (Homo sapiens, UniProt P05186).
T1 construct: expressed in transfected cells
T1 sequence (P05186 18-501 limits assumed): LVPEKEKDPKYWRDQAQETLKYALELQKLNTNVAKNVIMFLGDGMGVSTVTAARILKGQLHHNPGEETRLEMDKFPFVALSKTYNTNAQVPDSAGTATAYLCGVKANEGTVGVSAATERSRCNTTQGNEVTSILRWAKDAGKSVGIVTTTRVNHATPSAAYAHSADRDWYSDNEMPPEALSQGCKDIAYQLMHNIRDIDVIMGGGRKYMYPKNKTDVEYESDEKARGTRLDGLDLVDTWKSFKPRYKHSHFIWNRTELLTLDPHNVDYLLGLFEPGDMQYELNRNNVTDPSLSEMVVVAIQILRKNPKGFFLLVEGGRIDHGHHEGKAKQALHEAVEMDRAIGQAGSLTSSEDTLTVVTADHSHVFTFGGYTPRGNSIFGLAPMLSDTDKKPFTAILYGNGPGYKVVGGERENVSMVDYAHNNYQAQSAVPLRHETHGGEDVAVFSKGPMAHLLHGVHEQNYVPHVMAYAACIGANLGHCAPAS
In words: Cell-surface binding by flow cytometry, CHO-ALPL. As to conditions: VHH His proteins. As for the experimental part: C-terminal His tagged VHH proteins were assessed for ALPP, ALPPL2, ALPI and ALPL cell-surface binding by flow cytometry. Binders encompassing different epitope bins were screened on CHO cells stably expressing ALPP, ALPPL2, ALPI or ALPL. High levels of cell-surface proteins expression were confirmed for each of the cell-lines by flow cytometry.
Cell surface binding of test agents to hALPP isoforms was characterized in four CHO-ALPP isoform stably transfected cell lines (CHO-ALPP, CHO-ALPPL2, CHO-ALPI and CHO-ALPL) and the resulting KDapp values determined. Adherent cells were detached from tissue culture flasks by incubating with 0.1% EDTA/PBS solution at 37° C. for ~10 minutes or until cells detached easily. Cells were re-suspended in ice-cold PBS/2% FCS in 15 ml tubes and centrifuged at 1700 rpm for 5 mins at 4° C. Supernatant was removed and the cell pellet re-suspended in PBS/2% FCS. A cell count was performed using a Chemometec Nucleocounter NC-202 and 2.5×10^5 cells were aliquoted per test sample into a 96 well plate. Cells were incubated with 100 μl of test agents at a range of concentrations, plus controls for 1 hr on ice. The sample plate was centrifuged at 1700 rpm for 5 mins at 4° C. The supernatant was removed, and a wash performed by re-suspending the cell pellets in 0.25 mL of ice-cold PBS/2% FCS using a multichannel pipette. Samples were again centrifuged at 1700 rpm for 5 min at 4° C. Supernatant was removed and two further washes performed as described. After the final wash and centrifugation step, excess liquid was removed by blotting the plate on tissue paper. Binding of VHH (His6 tagged) agents was determined by adding 100 μl of anti-x6His tag Ab (Abcam) per cell pellet sample as appropriate and incubating on ice for 30 mins. Wash steps were performed as described previously. Fitc-anti-mouse antibody (ThermoFisher) was used to detect binding of the VHH (His6 tagged) agents by incubating with the appropriate samples for 30 min on ice in the dark. Wash steps were performed as described previously. All cell pellets were finally re-suspended in […] of ice-cold PBS/2% FCS and left on ice in the dark prior to analysis on a Merck-Millipore Guava EasyCyte HT or Thermo Fisher Attune N×T flow cytometer.
VHH-hFc proteins were assessed for human ALPP, ALPPL2, ALPI and ALPL cell-surface binding by flow cytometry. Binders were screened on CHO cells stably expressing human ALPP, ALPPL2, ALPI or ALPL.
Cell surface binding of test agents to hALPP isoforms was characterized in four CHO-ALPP isoform transfectant cell lines (CHO-ALPP, CHO-ALPPL2, CHO-ALPI and CHO-ALPL) and the resulting KDapp values determined. Adherent cells were detached from tissue culture flasks by incubating with 0.1% EDTA/PBS solution at 37° C. for ~10 minutes or until cells detached easily. Cells were re-suspended in ice-cold PBS/2% FCS in 15 ml tubes and centrifuged at 1700 rpm for 5 mins at 4° C. Supernatant was removed and the cell pellet re-suspended in PBS/2% FCS. A cell count was performed using a Chemometec Nucleocounter NC-202 and 2.5×10^5 cells were aliquoted per test sample into a 96 well plate. Cells were incubated with 100 μl of test agents at a range of concentrations, plus controls for 1 hr on ice. The sample plate was centrifuged at 1700 rpm for 5 mins at 4° C. The supernatant was removed, and a wash performed by re-suspending the cell pellets in 0.25 mL of ice-cold PBS/2% FCS using a multichannel pipette. Samples were again centrifuged at 1700 rpm for 5 min at 4° C. Supernatant was removed and two further washes performed as described. After the final wash and centrifugation step, excess liquid was removed by blotting the plate on tissue paper. Binding of VHH-hFc agents was determined by adding 100 μl of Fitc-anti-human Ab (ThermoFisher) and incubating for 30 mins on ice in the dark. Wash steps were performed as described previously. […]

Residue numbers refer to the chain shown, from its start.

B1: E10: ALPP/ALPPL2 targeting VHH domain, SEQ ID NO: 31 (protein)
VHH: QVQLVESGGGLVQAGGSLRLSCAVSGRALSDYNIGWFRQAPGKEREFVARKTWDGSSTRYDDSVKGRFTVSIEDAKNTAYLQMSSLKTEDTAVYYCAAGRYSRARGWEYDYWGQGTQVTVSS
As for B1, the midpoint of thermal melting (Tm) in series [1] is 71.8 °C. The “KDapp CHO-ALPL” value in series [2] was “No binding”.

B2: F05: ALPP/ALPPL2 targeting VHH domain, SEQ ID NO: 34 (protein)
VHH: B1 VHH with V24A, L29F, S30G, K51R, E73D, D74N, S84N, A104V
Take B2: in series [1], the Tm was determined as 70.6 °C. Besides, the “KDapp CHO-ALPL” value in series [2] is listed as “No binding”.

B3: C07: ALPP/ALPPL2 targeting VHH domain, SEQ ID NO: 25 (protein)
VHH: QVQLVESGGGLVQAGESLRLACAASGTIFSGNAVGWYRQAPEKQREWVSSITDYGDTDYAEAVKGRFTISRDNAKNTVYLQMNSLKPEDTAVYYCYVYQRGESEEYWGQGTQVTVSS
With B3, the Tm in series [1] was found to be 70.7 °C. Also, in series [2], the “KDapp CHO-ALPL” value is given as “No binding”.

B4: E06: ALPP/ALPPL2 targeting VHH domain, SEQ ID NO: 30 (protein)
VHH: QVHLVESGGGLVQAGGSLRLSCAASRRSFSEYAMGWFRQAPGKEREFVAAIGWSGVIEYADSVKGRFTISRDNAKDTVYLQMNSLKPEDTAVYYCAAGLGIRVVSQTPAYWGQGTQVTVSS
B4: the melting temperature (Tm) in series [1] came to 81.1 °C. Further, the “KDapp CHO-ALPL” value in series [2] is recorded as “No binding”.

B5: D10: ALPP targeting VHH domain, SEQ ID NO: 28 (protein)
VHH: QVQLVESGGGLVQPGGSLRLSCAASGSIFSVNTMGWYRQAPGKQRDLVAVATSGGTIHYADSVKGRFTISRDNAKNTVYLQMNSLKPEDTAVYYCNLVVPYGMIAGDHDYWGQGTKVTVSS
With B5, the Tm in series [1] turned out to be 69.9 °C. The “KDapp CHO-ALPL” value in series [2] is “No binding”.

B6: A05: ALPP/ALPPL2 targeting VHH domain, SEQ ID NO: 16; tested C-terminally His-tagged (protein)
VHH: QVQLVESGGGLVQAGASLTLSCAASGFTFNTRSIVWFRQAPGKEREAVSCISKVAGSTYYGDSVQGRFSSSTDNAKNTVSLQMNSLKPEDTAVYTCAASFAPNCYGWSVAANMEYWGEGTMVTVSS
modifications: C-terminal His tag
notes: tested C-terminally His-tagged
As to B6, in series [1], the Tm was 69.5 °C. Also, in series [2], the “KDapp CHO-ALPL” value is “No binding”.

B7: B01: ALPP/ALPPL2 targeting VHH domain, SEQ ID NO: 20 (protein)
VHH: QVQLVESGGGLVQAGGSLRLSCEVTRSPMPIDTMAWYRQAPGRQRELVAIISRSGSTNYADSVKGRFTISRNDTKSTMYKSTMYLKMNTLELEDTGVYYCNAVGLWNGAEYWGQGTQVTVSS
With B7, in series [1], the Tm was found to be 82.7 °C. In series [2], the “KDapp CHO-ALPL” value is on record as “No binding”.

B8: F08: ALPP/ALPPL2 targeting VHH domain, SEQ ID NO: 35 (protein)
VHH: QVQLVESGGGSVQAGGSLRLSCAASGPSLSNYAMGWFRQAPGKEREFVAGISWGGGRTSYTDSVKGRFTISRDNAKNTVYLQMNNLKPEDTGVYYCAGRYGRGRNVEYEYDYWGQGTQVTVSS
In the case of B8, the Tm in series [1] was found to be 77.6 °C. The “KDapp CHO-ALPL” value in series [2] is reported as “No binding”.

B9: A06: ALPP/ALPPL2 targeting VHH domain, SEQ ID NO: 17; tested C-terminally His-tagged (protein)
VHH: QVHLVESGGGLVQAGGSLRLSCAASGRTFLSMGWFRQAPGKEREFVAAISWTGGSTGYADSVKGRFTISRESDKETMYLQMNSLKPEDTAVYYCAARGDVYYGGDDATRYKYWGQGTQVTVSS
modifications: C-terminal His tag
notes: as for B6
In the case of B9, in series [1], the melting temperature (Tm) was 73.2 °C. In addition, the “KDapp CHO-ALPL” value in series [2] is “No binding”.

B10: D04: ALPP/ALPPL2 targeting VHH domain, SEQ ID NO: 26 (protein)
VHH: QVQLVESGGGLVQPGGSLRLSCAASESTFSINVMGWYRQAPGKQRELVATITSGDITNYADSVKGRFTISRDNAENTVYLRTNSLKPEDTAVYYCNARGEYHSGNEYDYWGQGTQVTVSS
As to B10, the midpoint of thermal melting (Tm) in series [1] was 59.8 °C. In addition, the “KDapp CHO-ALPL” value in series [2] is listed as “No binding”.
